Target: urokinase-type plasminogen activator receptor (human) (UniProt Q03405)
Test: cell-based or functional assay

urokinase-type plasminogen activator receptor (human), sequence (Q03405 23-305): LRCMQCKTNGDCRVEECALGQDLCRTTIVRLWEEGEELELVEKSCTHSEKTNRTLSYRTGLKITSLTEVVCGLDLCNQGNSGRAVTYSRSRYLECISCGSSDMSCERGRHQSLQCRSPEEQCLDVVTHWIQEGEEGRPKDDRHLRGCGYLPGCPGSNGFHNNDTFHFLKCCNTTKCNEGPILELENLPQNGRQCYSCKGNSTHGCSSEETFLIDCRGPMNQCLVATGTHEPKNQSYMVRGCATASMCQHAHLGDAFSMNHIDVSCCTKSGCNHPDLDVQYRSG

With “DTAT (from UniProt P00588 33-422; P00749 21-155)” the IC50, 3H-thymidine incorporation inhibition, HUV-EC, DTAT was 0.0268 nM.
